Laboratory results: US5951979

Target: tyrosine phosphorylated ^32 P-labelled RCM-lysozyme (Gallus gallus (Chicken)) (UniProt P00698)

## full length PTP-PEST D199A (from UniProt Q05209) (enzyme)
  specific activity with tyrosine phosphorylated RCM-Lysozyme as substrate (fold lower than the wild type enzyme): 10000
